# Measured values reported in the emibetuzumab library of Makowski et al. (2022).
# B1: VH:VL chains; a variant is named by its letters at X, in order (parent)
# chain 1: QVQLVQSGAEVKKPGASVKVSCKASGYTFTDYXMHWVRQAPGQGLEWMGXVNPNXXXTTYNQKFEGRVTMTTDTSTSTAYMELRSLRSDDTAVYYCARXNXLDXWGQGTTVTVSS
# chain 2: DIQMTQSPSSLSASVGDRVTITCSVSSSVSSIYLHWYQQKPGKAPKLLIYSTSNLASGVPSRFSGSGSGTDFTLTISSLQPEDFATYYCQVYSGYPLTFGGGTKVEIK
# Variants of: B1
# Assay: yeast display scFab, FACS + sequencing
# How it was run: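 For the non-specific binding call, a heavy-chain CDR mutant scFab library on the yeast surface was FACS-sorted and samples from two replicates were deep sequenced. Cells were labelled with anti-Myc and either biotinylated ovalbumin (260 μg/mL in PBSB, 3 h, room temperature) or soluble membrane proteins (130 μg/mL, 20 min on ice), with gates on the top 25% and bottom 10% of binders. With membrane protein and ovalbumin samples pooled, a sequence in ≥3 of 4 positive samples and no negatives was scored positive, and the converse rule scored negatives.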
row,Variant,non-specific binding call
1,VKGTGFLD,binds
2,FKGRGAGS,binds
3,YKGRGASV,binds
4,YKGRGASS,binds
5,YKGRGASA,binds
6,YKGRGASD,binds
7,VKGRADLY,no binding
8,VKGRADLV,no binding
9,VKGRSFLV,binds
10,YKGRGDWY,binds
11,VKGKGDLA,no binding
12,YKGRGSAY,binds
13,YKGRGSAF,binds
14,VKGRASSV,no binding
15,SKGKGSSA,binds
16,VKGKGDAV,no binding
17,YKGKGFGF,binds
18,YKGKGFGD,binds
19,YKGKGFGA,binds
20,FKGRGSAD,binds
21,FKGRGSAA,binds
22,YKGKGSSS,binds
23,YKGKGSSY,binds
24,VKGRGYGA,binds
25,VKGRGSAA,binds

row,Variant,non-specific binding call
1,VKGRGSAY,binds
2,VKGRGSAD,binds
3,VKGRGSVF,no binding
4,SKGRGSAA,binds
5,YKGRGSWF,binds
6,YKGRGSWS,binds
7,FKGTDSSD,binds
8,VKGKSSWS,binds
9,VKGKGASA,binds
10,FKGKSSSD,binds
11,YKGKGSWD,binds
12,YKGKGSWA,binds
13,YKGRGVVV,binds
14,YKGRGAAS,binds
15,YKGRGAAF,binds
16,YKGRGAAY,binds
17,FKKEGYGD,binds
18,FKGKGAGD,binds
19,YKGRGSVY,binds
20,YKGRGSVD,binds
21,YKGRGSLA,binds
22,YKGRGSLV,binds
23,YKGRGSLY,binds
24,YKGRGSLF,binds
25,SKGKGAVA,binds

row,Variant,non-specific binding call
1,AKGRADVY,no binding
2,VKGKGAWD,binds
3,VKGRAYGV,no binding
4,YKGKGVGV,binds
5,VKGRGFWY,binds
6,SKGRSSLA,no binding
7,YKGRGDAD,binds
8,YKGKGAVA,binds
9,VKGRTSVY,no binding
10,YKGRGYSY,binds
11,YKGKGSVS,binds
12,YKGKGSVA,binds
13,YKGKGSVV,binds
14,YKGRGDGY,binds
15,YKGRGDGD,no binding
16,DKGTDVGA,binds
17,YKGKGAWD,binds
18,YKGKGAWS,binds
19,YKGKGAWA,binds
20,YKGKGAWV,binds
21,YKGKGAWY,binds
22,FKGRGSSS,binds
23,SKGRSDVF,no binding
24,SKGRSDVY,no binding
25,SKGRSDVS,no binding

row,Variant,non-specific binding call
1,SKGRSDVV,no binding
2,SKGKGSWD,binds
3,YKGKGSLY,binds
4,YKGKGSLD,binds
5,YKGKGSLA,binds
6,YKGKGSLF,binds
7,VKGRADSF,no binding
8,VKGRADSA,no binding
9,VKGRADSV,no binding
10,YKGRGALY,binds
11,YKGRGALS,binds
12,YKGRGALF,binds
13,YKGRGALA,binds
14,YKGKGYVD,binds
15,VKGRGAWY,binds
16,VKGRGAWA,binds
17,VKGRSDAS,no binding
18,VKGRGSLF,binds
19,FKGRGSLY,binds
20,FKGRGSLA,binds
21,FKGRGSLS,binds
22,VKGRASAF,no binding
23,VKGRASAS,no binding
24,YKGRAAGS,binds
25,SKKEDSAD,no binding

row,Variant,non-specific binding call
1,SKGRSDGA,no binding
2,SKGRSDGV,no binding
3,SKGKGSAA,binds
4,AKGTASGD,binds
5,YKGRGYWY,binds
6,FKGRGALA,binds
7,FKGRGVWV,binds
8,FKGRGAAY,binds
9,FKGRGAAD,binds
10,FKGRGAAV,binds
11,FKGRGAAS,binds
12,VKGRGAGY,binds
13,VKGRGAGS,binds
14,YKGRGAVS,binds
15,YKGRSSSS,binds
16,VKGRASWS,no binding
17,SKGRGALA,binds
18,VKGKGDVY,no binding
19,FKGRGFVV,binds
20,YKGKGSAV,binds
21,YKGKGSAA,binds
22,YKGKGDAD,binds
23,AKGRGDGA,no binding
24,YKGRASAV,binds
25,FKGRGFGV,binds

row,Variant,non-specific binding call
1,YKGRGYGF,binds
2,YKGRGYGA,binds
3,YKGRGYGD,binds
4,VKGRSDSA,no binding
5,VKGRGVVD,binds
6,SKGRSDAV,no binding
7,VKGRAFSV,no binding
8,YKGRGFSD,binds
9,YKGRGYLV,no binding
10,VKGRADVD,no binding
11,VKGRADVF,no binding
12,VKKEDAGD,no binding
13,DKGRSAGD,no binding
14,VKGRASGF,no binding
15,VKGRASGY,no binding
16,YKGRGFAY,binds
17,FKGKGSAD,binds
18,YKGRSAAA,binds
19,SKGKGAGF,binds
20,SKGKGAGD,binds
21,SKGKGVGA,binds
22,YKGRGFGD,binds
23,VKGRSDGV,no binding
24,YKGKGSGF,binds
25,YKGKGSGS,binds

row,Variant,non-specific binding call
1,YKGKGSGA,binds
2,VKGRAAVA,no binding
3,FKGKGVGD,binds
4,FKGKGSWD,binds
5,SKGRGAGS,binds
6,FKGKGALD,binds
7,FKGKGAVA,binds
8,FKGKGAVV,binds
9,VKGRGSWS,binds
10,VKGRGSWY,binds
11,VKGRGSWA,binds
12,FKGRGDGS,binds
13,VKGKGAAF,binds
14,VKKEDDVV,no binding
15,FKGKGSGA,binds
16,AKGRAAAS chain 1 D103N,binds
17,YKGRAALY,binds
18,VKGRGSGS,binds
19,YKGTDAWY,no binding
20,YKGKGALD,binds
21,YKGKGALA,binds
22,VKGKGDWV,no binding
23,VKGTGVAY,binds
24,FKGKGAAF,binds
25,FKGKGAAV,binds

row,Variant,non-specific binding call
1,YKGRGAGF,binds
2,YKGRGAGY,binds
3,VKGRADWA,no binding
4,VKGRADWY,no binding
5,VKGRADWF,no binding
6,VKGRADWV,no binding
7,VKGRADWD,no binding
8,YKGKGFAA,binds
9,SKGRADVY,no binding
10,VKGRADAD,no binding
11,VKGRADAV,no binding
12,VKGRADAA,no binding
13,YKKESDSY,no binding
14,VKGKGSAA,binds
15,VKGRGSSF,no binding
16,YKGKGDGD,binds
17,YKGRDDVA,no binding
18,YKGRDAGD,binds
19,YKGKDSVD,no binding
20,VKGKDVGY,binds
21,FKGRSASY,binds
22,SKGKGAWY,binds
23,YKGKSAWD,binds
24,YKGKSAWV,binds
25,VKGRSVGY,binds

row,Variant,non-specific binding call
1,YKGRSAVY,binds
2,SKGRSSWS,binds
3,SKGRGAWD,binds
4,SKGRGAWV,binds
5,FKGRGAWS,binds
6,FKGRGAWV,binds
7,FKGKGFGA,binds
8,YKGRGFWA,binds
9,VKGRGFAA,binds
10,AKGKGAAV,binds
11,YKGRGVGD,binds
12,YKGRGVGA,binds
13,YKGRGVGV,binds
14,YKGRGVGY,binds
15,FKGRGAVY,binds
16,FKGRGAVD,binds
17,VKGRGAAY,binds
18,FKGKGAWY,binds
19,VKGRGVGY,binds
20,VKGRGVGA,binds
21,VKGRSDWV,no binding
22,YKGRDALD,binds
23,FKGRDSGS,binds
24,VKGTDAWY,no binding
25,FKGRGSGV,binds

row,Variant,non-specific binding call
1,FKGRGSGY,binds
2,YKGRGFVY,binds
3,DKGRSVGV,no binding
4,VKGRADGV,no binding
5,VKGRADGS,no binding
6,DKGRGSSA,no binding
7,YKGKGAGF,binds
8,YKGKGAGS,binds
9,VKGRGDSF,no binding
10,YKGRSASV,no binding
11,YKGRGYVA,binds
12,DKKEDSAD,no binding
13,YKGRDASD,binds
14,YKGRDAWD,binds
15,VKGRGASV,binds
16,SKGTDDWV,no binding
17,YKGRGYAA,binds
18,YKGRGYAV,binds
19,YKGRGYAD,binds
20,VKGRSDVY,no binding
21,VKGRGDAA,no binding
22,SKGRGAVY,binds
